Test results taken from the RNAGym collection of RNA variant scans (doi:10.1073/pnas.2313332121).

B1: TPR t1 (parent)
chain: GACCAAUCUGCCCUCAGAGCUCGAGAACAUCUUCGGAUGCAGAGGAGGCAGGCUUCGGUGGCGCGAUAGCGCCAACGUCCUCAACCUCCAAUGCAUCCCACCACAUGAUGAUGCCUGAAGAGCCUUGGUUUUUUG

Variants of: B1
Assay: polymerase ribozyme fitness, log enrichment relative to wild type (log ratio); higher = more active; in vitro selection for triplet polymerase activity
Procedure, shortened: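 Mutant libraries of both subunits of a heterodimeric triplet polymerase ribozyme were PCR-built, transcribed, and selected once in triplicate, with frozen incubation at −7 °C and capture of gel-excised extended constructs on streptavidin beads before RT-PCR. Illumina sequencing of input and output libraries was filtered to genotypes with ≥10 input reads and ≥1 read per output. Fitness is the logarithm of genotype enrichment over wild-type enrichment, using inverse-variance-weighted replicate averages. The logarithm is base 2.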

| Variant | polymerase ribozyme fitness (log ratio) |
| --- | --- |
| A18C C20U A84C U96C G117U G127A | -5.53 |
| A18U G52U G61A | -2.78 |
| A16U G47A C56G C86U C101A A121C | -0.796 |
| A16U U21C G60A G71U U112G G113A | -5.57 |
| G17C G48A C80U A83C A95G C123G | -6.14 |
| A18G A121U | -1.13 |
| G17U A27U G42A A43U C85U C124A U133A | -5.61 |
| A18G C49G U87A C89A U116C A118G | -4.85 |
| A16U G58A C72U | -1.69 |
| A16U U32C U38G G71A C114G A121U U133A | -6.3 |
| G17U A18C G57C | -2.66 |
| A16U G61A U81A C88G | -3.75 |
| G17C C56U | -3.79 |
| A16G C22U G45U C64G C86G A121C | -7.27 |
| G17U G52C A74U G77U C123U | -2.34 |
| A18C G52U A74U A95U A121G | -3.61 |
| A16C G122A | -4.43 |
| A18U A43C C49U | -3.92 |
| A18U G57U C88U C101G | -6.08 |
| A18C C88U A90G C114G | -0.417 |
| G17A U109A G117A C124A | -5.22 |
| A18U U55G C56G | -4.5 |
| A16U G93A | -2.35 |
| G17U A84U U96G G128U U130C | -3.54 |

| Variant | polymerase ribozyme fitness (log ratio) |
| --- | --- |
| A18C G63A U92G U112C G117A | -4.55 |
| G17A A18C C22U G35A A75U C79G A90G C99A C124G | -5.46 |
| A16U C85U | -2.77 |
| A18U A41U C114U C115G U116G A121G G122U | -3.05 |
| G17U G48A A50U G60A | -3.1 |
| A18U G61A C70U C115A | -5.05 |
| G17C A75G C101U | -5.29 |
| A18U C76A | -3.36 |
| A18G G19A C88U A90G | -1.41 |
| A18G C88U G113U | -2.52 |
| A18U A41C C88U U92C C104U A111C U125G U132C | -4.68 |
| A18C G47U A111U U129G | -7.66 |
| A18U G60A C72U G122A U130G | -3.74 |
| G19A C20U U55G G57U C99A G113U | -6.19 |
| A18U G58A U112A G122U | -2.54 |
| A18U G44C G69U | -0.776 |
| G19A C20A C62U | -4.22 |
| A16U A27U G61A | -4.42 |
| A18U A43U | -1 |
| G17U C49G C64U U131C | -2.89 |
| G17C A29G C72A | -5.8 |
| A18G G69A C88G G113C | -5.21 |
| A18U C20U U87G | -2.42 |
| A16U C72G | -1.5 |

| Variant | polymerase ribozyme fitness (log ratio) |
| --- | --- |
| G17U G45U G61U U81A | -3.74 |
| A18C G39C A41U G60C C123U | -4.26 |
| A18U G42U A74G | -1.91 |
| G19A C70A C94U | -5.61 |
| A18C G42U G69C | -3.2 |
| A18U C72U C97U | -3.15 |
| A16U C49A G63C | -1.43 |
| A16U A46U C49A | -2.45 |
| A16G G48A G110A | -2.05 |
| G17A G36U | -3.69 |
| A18C C20U | -1.33 |
| A18U C123G U129A | -1.83 |
| A18U C76A C94U U112C | -1.22 |
| A18C A41G C101G | -5.9 |
| A18C C56G | -2.15 |
| G17U U55A | -2.43 |
| A18G C70U C82A | -6.34 |
| A18C G42A G44U C53G G93A | -4.64 |
| G19A A50U G113C | -2.01 |
| G17U A27U C40A C64A C85A G117C G127A U129A | -6.49 |
| G17C U21A G39A U112C C115A | -1.1 |
| A16G A41C A50U U81A U106A | -2.3 |
| A16U G51U | -4.76 |
| A16U C56G | -2.56 |

| Variant | polymerase ribozyme fitness (log ratio) |
| --- | --- |
| A16G A46U C124U | -0.673 |
| G17U C34A U112A G120C | -6.92 |
| G19A C70U C76G U81C | -4.57 |
| A16U G117C G120A | -4.52 |
| G17U G71A | -3.25 |
| G17C U54G C124U | -2.64 |
| G17U A95G U131A | -2.77 |
| A16G G69C A91U G113U | -3.01 |
| A18U G60U U92G | -3.05 |
| G17A G47U | -4.84 |
| G17U U55A G77C C86G C124U | -3.47 |
| A18C G42U U54C C82G | -2.51 |
| A18G G60A C88U A90C | -4.63 |
| A16U U59A C124A | 1.46 |
| G19A C40U C53A G58C G93U | -4.4 |
| A16U G69U C98U A121C U130A | -0.111 |
| A18G G58A C79G A118G | -7.2 |
| A18U C85G | -3.16 |
| A16U G60C G117C U125A | -4.08 |
| A18G C72G A84G U92A C115A | -5.47 |
| A18G G36C G45U U112A | -2.4 |
| A18C A118U | -0.81 |
| A16C U112C | -0.921 |
| A16G A68G | -4.75 |

| Variant | polymerase ribozyme fitness (log ratio) |
| --- | --- |
| G17U C31U C64G G93U C123A U130A | -5.64 |
| A16C G58C | -2.65 |
| A16U C104U | -1.25 |
| A16U C49A G69U | -1.01 |
| G17A C115U U125A | 0.421 |
| G17C C73U | -4.07 |
| A16U G39U | -3.47 |
| G19A A83G C114G G122C | -4.41 |
| A16U G42C A43G G45U C73A U129A | -3.44 |
| A18U G48U C64U C88U | -2.9 |
| G17A G110A | -4.08 |
| G17U A121G | 0.688 |
| A18U C62U C89A U133A | -2.36 |
| G17U U21A C62G A75C C124U | -4.5 |
| G17U C53G U96C U126C | -4.06 |
| A18C G52C U96C | -3.84 |
| A16G U81A | -2.36 |
| A18U C22G G58U U59G U87G | -4.24 |
| A16G G44U G113C A119C G135A | -6.45 |
| G17C G25U C34U G69U U112G | -7.59 |
| A18C U92G A121G | -0.659 |
| A18G C124U | -0.797 |
| A18C G58U G69C C89U U106A G110U | -4.7 |
| G17C A90C A121C | -1.46 |

| Variant | polymerase ribozyme fitness (log ratio) |
| --- | --- |
| A18C C88U A95G | -2.41 |
| G19A C20G U106C G117A | -6.46 |
| A16U C72G G122A | -2.16 |
| G17U G47A G71C | -3.03 |
| G17U G47A G71U | -3.24 |
| G17U C115G | -0.423 |
| A18C G135U | -3.23 |
| A16G G71U C123U | -0.364 |
| A18C G45U | -3.69 |
| A18G G42A C72G G113A U132A | -2.54 |
| A18U G39U C104U U112A | -1.88 |
| A18C G45A C53U | -4.6 |
| A16U C73G | -2.59 |
| A18C G45A C49G G61A U133A | -4.6 |
| A16U C22G C64U | -4.96 |
| G17U C89G C104U | -2.94 |
| G17A C53U U54A C64U U92G | -4.58 |
| A16G C76G G117A C123G G135U | -1.57 |
| A16G G93A U109G | -5.43 |
| A18U U54A A83U | -4.98 |
| A16G A41C A84U C99A G117C U133C | -4.53 |
| A18G G127U | -4.06 |
| G17A C49A G58A G110C | -6.79 |
| G17U G42U G128A | -5.51 |

| Variant | polymerase ribozyme fitness (log ratio) |
| --- | --- |
| G17C U106G C115G | 0.318 |
| A18U C62G A121U | -2.71 |
| A18G A43U G71U U87C | -4.47 |
| A18G C20A C64A A111G U112A | -6.09 |
| A16G C49A C73U | -0.946 |
| G17U C34G A68U C72G C85A C123A | -7.76 |
| A16G G69C A84G C102A C114U C115A | -6.44 |
| A16U U96A | -2.28 |
| A18U C104A | -4.32 |
| A16C U32G G69A U109C G135A | -6.26 |
| A16G C40A C49G | -3.32 |
| G17A G69C U112A | -4.29 |
| A18U A46U | -3.64 |
| G17U C34G A50G | -7.24 |
| A18U C98U A111C | -4.18 |
| G19A A29G | -3.47 |
| G17U C88U G127C | -3.89 |
| A18G G117C | -3.04 |
| A16U C40U U87G U92A | -5.02 |
| G19A | -2.28 |
| A16U G17C C123U U126C | -2.6 |
| A16U U116G | 0.557 |
| A16U G69A C82G C97A C114U U133G | -5.51 |
